Source: patent publication US10654939
pKd: −log10 of the molar value.

Key:
[1] = molecular target: human CD40 expressed on cells (human) (UniProt P25942); assay: FACS, HEK293A/humanCD40 cells
[2] = molecular target: recombinant human CD40 (ECD)-his (human) (UniProt P25942); assay: SPR (Biacore 8K), hCD40(ECD)-his coupled to chip, antibody injected
[3] = molecular target: rhesus CD40 expressed on HEK293A cells (rhesus monkey); assay: FACS, HEK293A/rhesusCD40 cells
[4] = molecular target: recombinant human CD40 (ECD)-his (human) (UniProt P25942); assay: ELISA, hCD40(ECD)-his coated
[5] = molecular target: human CD40 expressed on cells (human) (UniProt P25942); assay: cell-based or functional assay
[6] = molecular target: recombinant rhesus CD40 (ECD)-hFc (rhesus monkey); assay: ELISA, rhCD40(ECD)-hFc coated
Chain of recombinant rhesus CD40 (ECD)-hFc (rhesus monkey) (P25942 other isoform, or with tags, fused parts or gaps): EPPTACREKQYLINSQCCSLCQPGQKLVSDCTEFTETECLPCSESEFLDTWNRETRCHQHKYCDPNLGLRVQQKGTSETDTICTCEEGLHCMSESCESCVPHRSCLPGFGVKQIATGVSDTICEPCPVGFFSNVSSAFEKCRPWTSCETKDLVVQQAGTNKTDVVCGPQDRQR

Chain of RO7009789 (antibody) (VH): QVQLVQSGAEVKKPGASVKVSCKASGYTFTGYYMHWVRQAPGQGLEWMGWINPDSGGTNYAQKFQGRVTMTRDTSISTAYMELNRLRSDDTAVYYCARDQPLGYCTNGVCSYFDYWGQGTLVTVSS
Chain of RO7009789 (antibody) (VL): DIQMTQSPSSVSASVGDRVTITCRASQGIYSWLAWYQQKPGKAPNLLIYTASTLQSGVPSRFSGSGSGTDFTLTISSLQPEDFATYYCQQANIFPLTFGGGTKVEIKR
Chain of human CD40 expressed on cells (human) (P25942 21-277 limits assumed): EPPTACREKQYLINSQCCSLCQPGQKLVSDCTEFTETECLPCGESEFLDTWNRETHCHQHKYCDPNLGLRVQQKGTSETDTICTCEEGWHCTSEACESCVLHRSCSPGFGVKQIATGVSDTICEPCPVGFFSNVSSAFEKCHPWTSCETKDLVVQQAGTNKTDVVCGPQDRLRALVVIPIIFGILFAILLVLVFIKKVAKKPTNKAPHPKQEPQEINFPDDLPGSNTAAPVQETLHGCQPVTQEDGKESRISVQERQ
Chain of recombinant human CD40 (ECD)-his (human) (P25942 21-193): as the sequence (P25942 other isoform, or with tags, fused parts or gaps) above, with S43G, R56H, L89W, M92T, S95A, P101L, L106S, R142H, Q172L counted along it
Chain of rhesus CD40 expressed on HEK293A cells (rhesus monkey) (P25942 other isoform, or with tags, fused parts or gaps limits assumed): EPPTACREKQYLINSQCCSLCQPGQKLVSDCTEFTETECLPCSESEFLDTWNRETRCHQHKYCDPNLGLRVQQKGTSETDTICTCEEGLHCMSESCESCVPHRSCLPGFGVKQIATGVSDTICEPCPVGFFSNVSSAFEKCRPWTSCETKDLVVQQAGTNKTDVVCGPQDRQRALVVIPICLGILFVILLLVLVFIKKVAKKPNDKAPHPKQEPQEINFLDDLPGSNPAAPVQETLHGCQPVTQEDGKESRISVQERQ

RO7009789 (antibody)
EC50 [1]: 0.227 mg/L | pKd [2]: 8.77 | EC50 [3]: 0.185 mg/L | EC50 [4]: 0.0207 mg/L | HEK Blue EC50 [5]: 0.0233 mg/L | EC50 [6]: 0.0162 mg/L
